The values below come from US20140193449A1.

The assay addresses CD8+ splenocytes from LV-huCEA-vaccinated huCEA transgenic mice (T cell receptors of huCEA-specific CTLs). As to the kind of experiment: flow cytometry, tetramer and anti-CD8 double staining of pooled splenocytes. For orientation: In flow cytometry, cells or beads pass a laser one at a time.

In turn, “PE-conjugated huCEA/H-2Db tetramer specific for EAQNTTYL (SEQ ID NO: 23) immunogenic peptide (iTag, Beckman Coulter) (from UniProt P01899 25-309) (peptide-MHC)” came in with a percent of CD8+ splenocytes stained by the tetramer of 2.1%.
